Measured values as given in article PMC8325310.
“And” between values parts separate entries of the source, which are not always exact repeats. Equal values may be shown once.

Key:
NT*-Bri2 BRICHOS (human) = assay: SEC; IMAC-purified NT*-Bri2 BRICHOS concentrated to 3.4 mg/mL, Superdex 200 26/600, 20 mM NaPi pH 8.0 with 0.2 mM EDTA; four peaks resolved (monomer, dimer, tetramer, higher oligomers)
[1] = target: recombinant human (rh) Bri2 BRICHOS (human); assay: SDS-PAGE under reducing and non-reducing conditions; SEC-isolated rh Bri2 BRICHOS species analysed by SDS-PAGE, reducing and non-reducing
[2] = target: recombinant human (rh) Bri2 BRICHOS (human); assay: SEC; Bri2 BRICHOS species after thrombin cleavage and reverse IMAC, Superdex 200 26/600 (oligomer, tetramer, dimer) or Superdex 75 26/600 (monomer), 20 mM NaPi pH 8.0 with 0.2 mM EDTA

Sequence of NT*-Bri2 BRICHOS (Q9Y287 132-236): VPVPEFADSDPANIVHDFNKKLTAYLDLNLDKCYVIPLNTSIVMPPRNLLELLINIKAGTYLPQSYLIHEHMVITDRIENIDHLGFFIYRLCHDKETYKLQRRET

| Substance | stoichiometry N (NT*-Bri2 BRICHOS (human)) | stoichiometry N [1] | stoichiometry N [2] |
| --- | --- | --- | --- |
| NT*-Bri2 BRICHOS (domain or fragment) | 2 and 4 | – | – |
| recombinant human (rh) Bri2 BRICHOS (domain or fragment) | – | 6 | 2 and 4 |
